Results published in PMC3982999 (Molecular Biology of the Cell, 2014).

Biological target: ubiquitin agarose (UniProt P0CG48 1-76, linked to agarose beads)
Experiment: pull-down

binding result: binds
B1: GST-spartin 1-408 (domain or fragment)
chain: MEQEPQNGEPAEIKIIREAYKKAFLFVNKGLNTDELGQKEEAKNYYKQGIGHLLRGISISSKESEHTGPGWESARQMQQKMKETLQNVRTRLEILEKGLATSLQNDLQEVPKLYPEFPPKDMCEKLPEPQSFSSAPQHAEVNGNTSTPSAGAVAAPASLSLPSQSCPAEAPPAYTPQAAEGHYTVSYGTDSGEFSSVGEEFYRNHSQPPPLETLGLDADELILIPNGVQIFFVNPAGEVSAPSYPGYLRIVRFLDNSLDTVLNRPPGFLQVCDWLYPLVPDRSPVLKCTAGAYMFPDTMLQAAGCFVGVVLSSELPEDDRELFEDLLRQMSDLRLQANWNRAEEENEFQIPGRTRPSSDQLKEASGTDVKQLDQGNKDVRHKGKRGKRAKDTSSEEVNLSHIVPCEPV
